Measured values reported in US20240000838A1 (SIMCERE INNOVATION, published 2024).

Biological target: T1, Human CD5 Protein, HisTag (AcroBiosystems, Cat #CD5-H52H5) (human, UniProt P06127 25-372)
T1 construct: Bought staining reagent, detected with His-APC antibody; also called CD5 antigen; APC labeled CD5 antigen; not shown: His tag
T1 sequence (looked up): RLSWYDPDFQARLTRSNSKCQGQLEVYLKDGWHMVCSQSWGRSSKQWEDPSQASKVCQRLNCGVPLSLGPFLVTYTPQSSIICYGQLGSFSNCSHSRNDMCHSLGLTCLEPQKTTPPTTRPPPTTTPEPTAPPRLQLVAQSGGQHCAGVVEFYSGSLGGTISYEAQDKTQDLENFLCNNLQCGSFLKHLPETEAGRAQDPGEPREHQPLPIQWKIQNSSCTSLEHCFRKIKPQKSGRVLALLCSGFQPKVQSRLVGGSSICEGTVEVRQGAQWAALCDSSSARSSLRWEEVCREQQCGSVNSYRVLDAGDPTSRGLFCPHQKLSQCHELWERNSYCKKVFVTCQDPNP
Assay: flow cytometry; CAR-T cells stained with soluble human CD5-His and His-APC antibody
Procedure: CD3 and CD5 are stained with a CD3-FITC antibody (BD Biosciences, #555339) and a CD5-APC antibody (BD Biosciences, #555355) for 30 minutes at R.T. in the dark. CAR5 surface expression is detected by staining with Human CD5 Protein, HisTag (AcroBiosystems, Cat #CD5-H52H5) for 1 hour at R.T., washed and then incubated with His-APC antibody (R&D Systems, IC050A) for 30 minutes at R.T. in the dark. CAR33 expression is stained with CD33 human protein-PE (Sino Biological, 12238-HCCH_P) for 1 hour at R.T. All the staining is performed at 1:10 dilutions. DAPI (Thermo Scientific, Cat #BV-421, 1:5000) is used to stain dead cells before running by the Attune NxT Flow Cytometer (Thermo Fisher Scientific). Data is further analyzed by either using Attune NxT flow software or FlowJo software.

B1: CD5 CAR CAR5-6, construct S010 (other)
chain: EIQLVQSGGGLVKPGGSVRISCAASGYTFTNYGMNWVRQAPGKGLEWMGWINTHTGEPTYADSFKGRFTFSLDDSKNTAYLQINSLRAEDTAVYFCTRRGYDWYFDVWGQGTTVTVSSGGGGSGGGGSGGGGSDIQMTQSPSSLSASVGDRVTITCRASQDINSYLSWFQQKPGKAPKTLIYRANRLESGVPSRFSGSGSGTDYTLTISSLQYEDFGIYYCQQYDESPWTFGGGTKLEIKASTTTPAPRPPTPAPTIASQPLSLRPEACRPAAGGAVHTRGLDFACDIYIWAPLAGTCGVLLLSLVITLYCKRGRKKLLYIFKQPFMRPVQTTQEEDGCSCRFPEEEEGGCELRVKFSRSADAPAYKQGQNQLYNELNLGRREEYDVLDKRRGRDPEMGGKPRRKNPQEGLYNELQKDKMAEAYSEIGMKGERRRGKGHDGLYQGLSTATKDTYDALHMQALPPR
notes: Chimeric antigen receptor on T cells
In the case of B1, the “% of T cells stained with CD5 antigen (CAR5 expression)” value is reported as greater than 80%.
